The supplement of paper PMC9170038

Tested on: MS2 coat protein
Experiment: apparent KD of MS2 coat protein; designed switch direction (-1 OFF switch, 1 ON switch): -1; higher = weaker reporter binding
In short: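 Normalised cluster fluorescence was curve-fitted, and each design's median over clusters is its apparent KD. Before this, SNAP-549-labelled MS2 coat protein was titrated from 0.7 or 1.5 nM, doubling to 3 µM, over RNA switches transcribed on Illumina chips by stalled E. coli RNA polymerase. Titrations had no input, 200 uM small-molecule ligand, or an oligonucleotide input, and steps lasted 0.8–1.5 h (lowest) to 10–20 min (highest).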

[1] = input ligand: microRNA oligo, concentration not stated
[2] = Eterna round: R95, input ligand: FMN 200 uM
[3] = Eterna round: R95, input ligand: microRNA oligo, concentration not stated
[4] = Eterna round: R95, input ligand: none

| Sequence | apparent KD of MS2 coat protein (input ligand: FMN 200 uM) [µM] | apparent KD of MS2 coat protein [1] [µM] | apparent KD of MS2 coat protein (input ligand: none) [µM] | apparent KD of MS2 coat protein [2] [µM] | apparent KD of MS2 coat protein [3] [µM] | apparent KD of MS2 coat protein [4] [µM] |
| --- | --- | --- | --- | --- | --- | --- |
| AACAGAAAAGAAAUAAAUAACAUGAGGAUCACCCAUGUCAACGGGUAAGAGCUCAACGAGCUGCGAGUCUUACUCAA [Enreaerre] (Eterna round: R96, puzzle: Sensor v2, turn-off variant) | 0.0257 | 0.0175 | 0.0247 | – | – | – |
| AAACAGGGAGGAUAUACAUGAGGAUCACCCAUGUUCGAGCGUCCUUGAGCUACCUCAGGUAGAAGGCCCAAAAG [Qubeon] (Eterna round: R97, puzzle: Exclusion 3) | 0.151 | – | 0.0329 | – | – | – |
| GUCGUGUUAGGAUAUUGGCCUUUUAGAUGCACUAAGUGAGACGAGAAGGGACAUGAGGAUCACCCAUGUAAUAA [Eternabot (L1) Solution 69] (Eterna round: R97, puzzle: Exclusion 4) | 0.0474 | – | 0.0364 | – | – | – |
| ACGCCGCAAGGAUAUCGUAAAGCAGACAUGAGGAUCACCCAUGUGAUAUCAUAAAGGCCACGAGAAGGUGCACAAG [Quoredin] (puzzle: Exclusion 5) | – | – | – | 0.0358 | 0.0212 | 0.0245 |
| UAUUAGCAAGCAAGAUCCCACAUGAGGAUCACCCAUGUGCUCGUCUUAAGCCCAGAAUUACUGGGCGCUCGUCUUAU [Winner reversed engineered 22] (Eterna round: R97, puzzle: Sensor, turn-off variant 1) | 0.0303 | – | 0.0284 | – | – | – |
| CCGGUUGGCGCAGGAUAUACAUGAGGAUCACCCAUGUUCAUGAGGAUCACCCAUGAGUUUUUGUUGUAGAAGGGUGGCCCGGCC [A second MS2 with the first and last base exchanged (less A)] (Eterna round: R96, puzzle: Exclusion NG 2) | 0.0238 | 0.015 | 0.0294 | – | – | – |
| UACAUGAGGAUCACCCAUGUUUUGUCGUGUAUGGUAUUUAUCUAGGAUAUCAAUUGGUUUAUUUAUGAGAAGGAGAAUAUUAAU [JMF's solution 57] (Eterna round: R96, puzzle: Exclusion NG 3) | 0.0361 | 0.0316 | 0.0333 | – | – | – |
| GGUUGGCGAGGAUAUACAUGAGGAUCACCCAUGUGAGAGAAAUAAGUGAGGAAGAAAAGUAGAAGGCGCUGACG [salish99_ex3_r3_014] (puzzle: Exclusion 3) | – | – | – | 0.222 | 0.0594 | 0.0792 |
| AGAGCACAUGAGGAUCACCCAUGUCAGGAUAUGCAAGAAAGAAAGAAAGAAAGAAAGAGCAGAAGGGACAAAUA [?solved?] (puzzle: Exclusion 1) | – | – | – | 0.0349 | 0.0342 | 0.0432 |
| CUUUUGUGAGGAUAUUAGUAGUAAAUAAUUAAAAUUACUACUGAGAAGGCACAUGAGGAUCACCCAUGUUCCUC [salish99_ex4_r3_056] (Eterna round: R96, puzzle: Exclusion 4) | 0.489 | 0.0332 | 0.0374 | – | – | – |
| GCUGGACGAGGAUAUGCAUUCGUGCUUCGGCACGUAAGGUCACAUGAGGAUCACCCAUGUAGAAGGUGUCCAGC [E2/6-B2] (Eterna round: R97, puzzle: Exclusion 2) | 0.0241 | – | 0.0184 | – | – | – |
| AUAAUGUAAGGAUAUCAGUCGUUAAUAAUUAAUUAAUCGACUGAGAAGGUACAUGAGGAUCACCCAUGUGAUCA [E4/8-B2] (Eterna round: R97, puzzle: Exclusion 4) | 0.0441 | – | 1 | – | – | – |
| CGAUGCUCGUGUCCACAUGAGGAUCACCCAUGUCGAGUUAGCGAGGAUAUCGGUAACACAUAGUACGAGAAGGCGCGAACCUGA [Ex NG3 #27] (Eterna round: R96, puzzle: Exclusion NG 3) | 0.0525 | 0.0146 | 0.0173 | – | – | – |
| UUAUUUAGUGUGAGGAUAUGCUGGUCCUUGGAUCAGCAGAAGGCACAUGAGGAUCACCCAUGUAAUAUAUUAAU [JL bmx4 3.06] (puzzle: Brourd's mod of Exclusion 4) | – | – | – | – | 0.0731 | – |
| CAUAAUUUUCGGAAUAUGUACAUGAGGAUCACCCAUGUGACGAGUUACAUGAUUAACAAGCUUUUUGCUCGUCUUAU [Sensor v3 - Turn-off variant 1 - 12] (puzzle: Sensor v3, turn-off variant 1) | – | – | – | 0.118 | 0.0319 | 0.207 |
| CGUCAGUCAGGAUAUACUUACGUAGACAUGAGGAUCACCCAUGUGACGUGGGACUGGUGAGUAGAAGGGACGAACA [EX5 #76] (Eterna round: R97, puzzle: Exclusion 5) | 0.0273 | – | 0.0181 | – | – | – |
| GACUGCUGAGGAUAUACAUGAGGAUCACCCAUGUGCUUCAGUAUCGAAAGAUGCAUGGGUAGAAGGUGGUAGUC [LRO-Excl3-09] (puzzle: Exclusion 3) | – | – | – | – | 0.0801 | – |
| CGGAGCGUGGGUAGGUGCAACAUGAGGAUCACCCAUGUCUCACAAGCUUUUUGCUCAUCUUAUUGUACCUUGGUGCU [Sensor v3, turn-off variant 1 (MOD of JL v.2)] (puzzle: Sensor v3, turn-off variant 1) | – | – | – | 0.13 | 0.0123 | 0.146 |
| CCAAGCUUGUUCAUUAACCACAUGAGGAUCACCCAUGUCUUGGCAAUUAUGACCUGCCCGUCAGGUGCUCGUCUUAU [Sensor-V1 #36] (Eterna round: R97, puzzle: Sensor, turn-off variant 1) | 0.045 | – | 0.0481 | – | – | – |
| UGAGUGCUGCGAGGAUAUACAUGAGGAUCACCCAUGUUUACCUGUGAGGCAAAGCCUCACAGGUUGUAGAAGGCGCAGUACUCU [Mat - Exclusion NG 2 - Mod of JL - D41] (Eterna round: R96, puzzle: Exclusion NG 2) | 0.016 | 0.0113 | 0.0186 | – | – | – |
| AAAGAAGAGAGAAAAUAACACAUGAGGAUCACCCAUGUGAGAAGUUGAGGGUGAUACAGGCUUUAUGCUCGUCUUAU (puzzle: Sensor v3, turn-off variant 1) | – | – | – | 0.173 | 0.204 | – |
| GUGUACAGAGGAUAUAUAUGGGCAUGGAAACAUGCAACUUCACAUGAGGAUCACCCAUGUAGAAGGCUGUACAC [Ex2: 712] (Eterna round: R96, puzzle: Exclusion 2) | 0.332 | 0.023 | 0.0289 | – | – | – |
| UAUUUAAUUAACAAGCUUUACAUGAGGAUCACCCAUGUGAUCAUGCUCGUCUUAUAAUUAAUUAAUUAAUUAAUUAA [Stov1/6-A2] (Eterna round: R97, puzzle: Sensor, turn-off variant 1) | 0.0516 | – | 0.0628 | – | – | – |
| GACAGGGCAGGAUAUCGAAUUCCUCACAUGAGGAUCACCCAUGUUCAGUCGAAAGACUGACGAGAAGGGCCGUGUC [Omei Ex5 E1] (Eterna round: R97, puzzle: Exclusion 5) | 1.02 | – | 2.29 | – | – | – |
| AGUUAGAUAGGAUAUGCCCGAGAUAACAUGAGGAUCACCCAUGUGACCGAAUCUAUUCUAGCAGAAGGGUUUAUGA [Mod of ViennaUCT 19 - Jieux - Exclusion 5] (Eterna round: R97, puzzle: Exclusion 5) | 0.0402 | – | 0.095 | – | – | – |
| GCCAGAGCAGGAUAUUCAAUAUCUCACAUGAGGAUCACCCAUGUCCAGCGAAAGCUGGAGGGAGAAGGGCUCUGGC [Fiskers Ex 5 - 9] (puzzle: Exclusion 5) | – | – | – | 0.0421 | 0.0573 | 0.0616 |
| GUCAGCUCGUGAGGAUAUACAUGCGUGCUUCGGCACGAAUUUAAGAUCACAUGAGGAUCACCCAUGUAGAAGGUACGAGCUGAC [ENG2/3-C1] (Eterna round: R96, puzzle: Exclusion NG 2) | 0.632 | 0.646 | 0.387 | – | – | – |
| AUCAUAUAACAAGCUUUUUACAUGAGGAUCACCCAUGUGGUUUUUAGUCUUAUCCCGGGCCCGAUAUCGGGCCCGGG [-33.4, -54.7, A 22%] (Eterna round: R97, puzzle: Sensor, turn-off variant 1) | 0.0228 | – | 0.0242 | – | – | – |
| GUGAGACAUGAGGAUCACCCAUGUGAGGAUAUCCGAAGGACCAAAUUAAGAAUAGAAGGGAGAAGGCACAUAAA [Exclusion 1 V6] (puzzle: Exclusion 1) | – | – | – | 0.128 | 0.0684 | 0.157 |
| AUUGUAGUUGUGAGGAUAUCGUUGAUUUUUUGAAACGAGAAGGCACAUGAGGAUCACCCAUGUAAGUUGUAGGU [JR_BMOE4_Sub055] (puzzle: Brourd's mod of Exclusion 4) | – | – | – | – | 0.0776 | – |
